Laboratory results taken from patent US20210214434A1.
pIC50, pKd: −log10 of the molar value.

Tests used:
[1] = biological target: Fc receptors on the surface of the effector cells; assay: cell-based or functional assay
[2] = biological target: human CD64 receptor expressed by Jurkat cells (Jurkat-CD64) (human) (UniProt P12314); assay: cell-based or functional assay
[3] = biological target: human CD16aH receptor on transfected Jurkat cells (Jurkat-CD16aH) (human) (UniProt P08637); assay: flow cytometry competition on Jurkat-CD16aH cells, displacement of mAb 3G8-PE (0.5 µg/ml)
[4] = biological target: biotinylated human FcRn receptor (hFcRn), immobilized on Streptavidin Biosensors (human) (UniProt P55899); assay: BLI (Octet), biotinylated hFcRn on streptavidin biosensors, pH 6, 1/1 model; SD 1.94
[5] = biological target: HisTag hCD32aH receptor (PX therapeutics) (human) (UniProt P12318); assay: BLI (Octet), HisTag hCD32aH on anti-Penta-HIS biosensors, 1/1 model; SD 114.3
CD32b = CD32b (UniProt P31994); assay: competition assay, protocol and competitor for CD32b not described
[6] = biological target: human CD32aH receptor on transfected HEK cells (HEK-CD32) (human) (UniProt P12318); assay: flow cytometry competition on HEK-CD32 cells, displacement of Rituxan-A488 (30 µg/ml)
[7] = biological target: human CD32aR receptor on transfected HEK cells (HEK-CD32) (human) (UniProt P12318); assay: as above
[8] = biological target: HisTag hCD16aV receptor (R&D System) (human) (UniProt P08637); assay: BLI (Octet), HisTag hCD16aV on anti-Penta-HIS biosensors, 1/1 model; SD 4.0
[9] = biological target: HisTag hCD16aV receptor (R&D System) (human) (UniProt P08637); assay: BLI (Octet), HisTag hCD16aV on anti-Penta-HIS biosensors, 1/1 model; SD 103.9
[10] = biological target: human FcRn receptor expressed by Jurkat cells (Jurkat-FcRn) (human) (UniProt P55899); assay: flow cytometry competition on Jurkat-FcRn cells, displacement of Rituxan-A488 (25 µg/ml), pH 6
[11] = biological target: human CD64 receptor expressed by Jurkat cells (Jurkat-CD64) (human) (UniProt P12314); assay: flow cytometry competition on Jurkat-CD64 cells, displacement of Rituxan-A488 (25 µg/ml)

Chain of human CD64 receptor expressed by Jurkat cells (Jurkat-CD64) (human) (P12314 16-374): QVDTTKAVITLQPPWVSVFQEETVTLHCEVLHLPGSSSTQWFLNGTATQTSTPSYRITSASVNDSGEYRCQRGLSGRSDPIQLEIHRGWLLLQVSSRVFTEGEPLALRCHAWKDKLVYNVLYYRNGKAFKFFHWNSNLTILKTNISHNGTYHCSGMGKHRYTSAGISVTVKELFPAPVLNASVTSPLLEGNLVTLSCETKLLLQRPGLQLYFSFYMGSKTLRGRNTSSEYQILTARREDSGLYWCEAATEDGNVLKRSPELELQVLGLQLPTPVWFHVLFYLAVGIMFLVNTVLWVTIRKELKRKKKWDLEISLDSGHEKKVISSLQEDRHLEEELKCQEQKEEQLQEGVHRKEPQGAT
Chain of HisTag hCD16aV receptor (R&D System) (human) (P08637 17-208 F176V limits assumed): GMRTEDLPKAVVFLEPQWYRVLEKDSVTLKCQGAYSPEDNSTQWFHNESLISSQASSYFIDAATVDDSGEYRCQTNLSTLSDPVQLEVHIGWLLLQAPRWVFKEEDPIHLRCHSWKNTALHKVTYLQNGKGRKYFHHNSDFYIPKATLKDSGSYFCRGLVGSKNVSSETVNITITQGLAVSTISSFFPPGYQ
Chain of human CD32aR receptor on transfected HEK cells (HEK-CD32) (human) (P12318 34-317 H167R limits assumed): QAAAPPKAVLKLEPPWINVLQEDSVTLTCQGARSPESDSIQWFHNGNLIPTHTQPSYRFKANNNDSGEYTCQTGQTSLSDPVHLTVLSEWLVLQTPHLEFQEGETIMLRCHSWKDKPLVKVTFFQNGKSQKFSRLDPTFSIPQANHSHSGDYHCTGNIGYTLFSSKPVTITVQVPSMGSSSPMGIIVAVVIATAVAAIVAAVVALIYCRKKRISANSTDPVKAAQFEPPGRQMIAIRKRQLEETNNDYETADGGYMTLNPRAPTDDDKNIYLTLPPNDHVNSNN
Chain of HisTag hCD32aH receptor (PX therapeutics) (human) (P12318 34-217 limits assumed): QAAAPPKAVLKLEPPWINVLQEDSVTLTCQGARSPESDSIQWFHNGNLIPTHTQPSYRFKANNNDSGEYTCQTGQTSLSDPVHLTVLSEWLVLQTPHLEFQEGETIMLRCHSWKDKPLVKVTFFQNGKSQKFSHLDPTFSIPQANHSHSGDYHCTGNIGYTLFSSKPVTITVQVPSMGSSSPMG
Chain of CD32b (P31994 43-310 limits assumed): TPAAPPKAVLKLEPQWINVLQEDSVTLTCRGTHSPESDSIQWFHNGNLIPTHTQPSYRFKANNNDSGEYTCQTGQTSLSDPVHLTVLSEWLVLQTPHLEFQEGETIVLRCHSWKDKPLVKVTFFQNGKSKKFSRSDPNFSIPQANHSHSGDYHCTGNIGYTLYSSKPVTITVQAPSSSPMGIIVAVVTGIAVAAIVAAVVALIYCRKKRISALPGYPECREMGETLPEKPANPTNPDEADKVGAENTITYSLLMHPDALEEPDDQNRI
Chain of human FcRn receptor expressed by Jurkat cells (Jurkat-FcRn) (human) (P55899 24-365, chain 1 of 2): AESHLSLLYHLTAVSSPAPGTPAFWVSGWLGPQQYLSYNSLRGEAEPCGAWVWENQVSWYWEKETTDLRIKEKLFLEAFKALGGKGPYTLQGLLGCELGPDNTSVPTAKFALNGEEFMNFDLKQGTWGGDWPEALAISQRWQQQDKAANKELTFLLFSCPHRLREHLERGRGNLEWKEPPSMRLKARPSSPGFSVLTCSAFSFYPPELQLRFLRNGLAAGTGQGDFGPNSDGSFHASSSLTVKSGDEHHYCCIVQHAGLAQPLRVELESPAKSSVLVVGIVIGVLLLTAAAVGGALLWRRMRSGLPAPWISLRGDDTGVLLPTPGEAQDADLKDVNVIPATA
Chain of human FcRn receptor expressed by Jurkat cells (Jurkat-FcRn) (human) (P61769 21-119, chain 2 of 2, further chain): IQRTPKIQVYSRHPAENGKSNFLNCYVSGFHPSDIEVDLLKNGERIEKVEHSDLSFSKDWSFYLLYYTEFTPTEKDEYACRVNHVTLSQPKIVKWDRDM
Chain of biotinylated human FcRn receptor (hFcRn), immobilized on Streptavidin Biosensors (human) (P55899 24-297 limits assumed, chain 1 of 2): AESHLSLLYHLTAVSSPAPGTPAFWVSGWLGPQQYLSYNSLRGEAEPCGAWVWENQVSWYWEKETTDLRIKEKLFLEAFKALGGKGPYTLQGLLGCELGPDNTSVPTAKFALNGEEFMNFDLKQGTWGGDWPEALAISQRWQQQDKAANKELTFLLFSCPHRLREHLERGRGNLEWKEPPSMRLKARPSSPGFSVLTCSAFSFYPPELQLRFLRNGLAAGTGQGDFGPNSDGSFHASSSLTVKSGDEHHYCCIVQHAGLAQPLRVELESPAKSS
Chain of biotinylated human FcRn receptor (hFcRn), immobilized on Streptavidin Biosensors (human) (P61769 21-119 limits assumed, chain 2 of 2, further chain): as the sequence (P61769 21-119, chain 2 of 2, further chain) above
Chain of human CD16aH receptor on transfected Jurkat cells (Jurkat-CD16aH) (human) (P08637 17-254): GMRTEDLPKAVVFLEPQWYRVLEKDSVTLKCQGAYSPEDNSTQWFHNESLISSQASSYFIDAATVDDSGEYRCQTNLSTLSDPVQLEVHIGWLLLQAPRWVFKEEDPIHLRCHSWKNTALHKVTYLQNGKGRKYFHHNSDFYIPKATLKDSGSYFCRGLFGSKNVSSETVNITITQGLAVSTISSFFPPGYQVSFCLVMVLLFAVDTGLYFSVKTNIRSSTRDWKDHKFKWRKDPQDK
Chain of human CD32aH receptor on transfected HEK cells (HEK-CD32) (human) (P12318 34-317): as the sequence (P12318 34-317 H167R limits assumed) above, with R134H counted along it

Substance | Inhibition of the lysis of the red blood cells medited by the anti-D AD1 (IC 25%, nM) [1] [nM] | Inhibition of the lysis of the red blood cells medited by the anti-D AD1 (IC 50%, nM) [1] [nM] | Inhibition of the secretion of IL-2 of the Jurkat cells transfected with CD64 (IC 25%, nM) [2] [nM] | Inhibition of the secretion of IL-2 of the Jurkat cells transfected with CD64 (IC 50%, nM) [2] [nM] | pIC50 [3] | pKd [4] | pKd [5] | pIC50 (CD32b) | pIC50 [6] | pIC50 [7] | pKd [8] | pKd [9] | pIC50 [10] | pIC50 [11]
A3A-184AY_CHO (K334N/P352S/A378V/V397M/N434Y), Fc variant produced in CHO cells (from UniProt P0DOX5 223-449) | 13.5 | 97 |  |  |  |  |  |  |  |  |  |  |  | 
IVIg (intravenous immunoglobulin, polyvalent immunoglobulins from pools of human plasma donations) (antibody) | 59.6 | 351 | 1110 | < 1950 | 5.77 | 7.46 | 6.36 | 6.12 | 6.17 | 5.88 | 6.18 | 6.47 | 5.87 | 6.06
Fc MST-HN fragment containing the mutations M252Y/S254T/T256E/H433K/N434F, produced in HEK-293 cells (from UniProt P01857 104-330) | 190 | 441 |  |  |  |  |  |  |  |  |  |  |  | 
A3A-184EY_CHO (Y296W/K334N/P352S/A378V/V397M/N434Y), Fc variant produced in CHO cells (from UniProt P0DOX5 223-449) | 7.6 | 56 |  |  |  |  |  |  |  |  |  |  |  | 
